Assay results reported in US11219645B2, “Tumor infiltrating lymphocytes for treatment of cancer” (Duke University, priority 2015, dated 2022).

Key:
[1] = tested on: activated CD8+ T cells; experiment: C3aR and C5aR antagonists in vitro blockade, IL-10 intracellular staining; format: cell-based, mouse; settings: 10 μmol/L of each antagonist, 6 days; FIG. 6J
Method: C3aR and C5aR Antagonists In Vitro Blockade: Mouse CD8+ T cells from lymph nodes were enriched using a negative selection kit (Stemcell Technologies; Cat #19853) and activated by plate-bound anti-CD3 (2 μg/mL) and anti-CD28 (1 μg/mL) antibodies for 72 hours. The activated CD8+ T cells were then cultured in complete medium alone (control), 10 μmol/L SB290157 (C3aR antagonist, C3aRA), 10 μmol/L PMX205 (C5aR antagonist, C5aRA), or a combination of 10 μmol/L SB290157 and 10 μmol/L PMX205 for 6 days. The IL10 expression was determined by intracellular staining.

[2] = cancer patients; cited from earlier work
[3] = tested on: human CD4+ T cells; experiment: Impact of IL-10 on effector cytokine production in human CD4+ T cells; format: cell-based; settings: 100 U/ml rIL-2 plus 500 U/ml rIL-10 versus rIL-2, 48 hrs; FIG. 9D
Method: (§1) B16F10 melanoma cells (2×10^5/mouse) were subcutaneously inoculated into WT and C3−/− mice. The draining lymph nodes and tumors were dissected and treated with collagenase and DNase to obtain single cell suspensions. Leukocytes were pre-gated on CD45 positive cells. FIG. 9A show the CD11b and GR1expression in leukocytes from dLNs as analyzed by flow cytometry. […] WT and C3−/− mice were subcutaneously inoculated with B16F10 cells (2×10^5/mouse). IFNγ- and TNFα-producing CD4+ TILs were analyzed by flow cytometry (n=4 mice per group) at day 12 after tumor inoculation. […] CD4+ T cells were enriched from PBMCs of healthy donors and activated by anti-CD3/CD28 antibodies in vitro for 48 hrs. The activated CD4+ T cells were then cultured with 100 U/ml rIL-2 or 100 U/ml rIL-2 plus 500 U/ml rIL-10 for 48 hrs. The cells were activated using a Cell Activation Cocktail (Biolegend) for 6 hours before intracellular IFNγ and TNFα staining. The expression of IFNγ and TNFα was analyzed by flow cytometry (n=3). […] Mouse CD4+ T cells were enriched from the spleens of naïve mice using a negative selection kit and activated by anti-CD3/CD28 antibodies for 48 hours in vitro. The activated CD4+ T cells were then cultured with 100 U/ml rIL-2 or 100 U/ml rIL-2 plus 500 U/ml rIL-10 for 48 hrs. […] The expression of IFNγ and TNFα was analyzed by flow cytometry (n=3). […]

[4] = tested on: mouse CD4+ T cells; experiment: Impact of IL-10 on effector cytokine production in mouse CD4+ T cells; format: cell-based; settings: 100 U/ml rIL-2 plus 500 U/ml rIL-10 versus rIL-2, 48 hrs; FIG. 9E
Method: as §1

[5] = tested on: TILs from human lung tumors; experiment: In vitro expansion of human TILs cultured with IL-2 and/or IL-10; format: cell-based; settings: FIG. 5A
Method: (§2) The plates were placed in a humidified 37° C. incubator with 5% CO2.
as §2

[6] = tested on: activated CD8+ T cells; experiment: PD-1 expression on CD8+ T cells activated with anti-CD3/CD28 in the presence of IL-10; format: cell-based, mouse; settings: 500 U/mL IL-10, 48 hours, 3 μg/mL anti-CD3/CD28; FIG. 7B
Method: (§3) B16F10 melanoma cells (2×10^5/mouse) were subcutaneously inoculated into wild-type (WT) and C3−/− mice. […] T cells from lymph nodes of naïve mice were activated by incubation with 3 μg/mL anti-CD3/CD28 antibodies for 48 hours with or without 500 U/mL IL-10 and analyzed for PD-1 expression. FIGS. 7C-D show PD-L1 expression on tumor cells developed in WT and C3−/− mice. Bl6F10 melanoma cells (2×10^5/mouse) or E0771 breast cancer cells (1×10^6/mouse) were subcutaneously inoculated into WT and C3−/− mice. PD-L1 expression in CD45-B16 tumor cells (FIG. 7C) and CD45-E0771 cells (FIG. 7D) was measured by flow cytometry at day 12 and day 19, respectively. […] B16F10 cells were cultured with or without 500 U/mL IL-10 for 5 days. PD-L1 expression was analyzed by flow cytometry. […] B16F10 cells were transduced with control virus or single-guide RNA (sgRNA)—targeting PD-L1 virus and selected with puromycin to generate a stable PD-L1-silenced polyclonal cell line. […] Control or PD-L1-silenced B16F10 melanoma cells (4×10^5/mouse) were subcutaneously inoculated into C3−/− and C3−/− Tiger mice. GFP expression in CD3+CD8+ TILs was analyzed by flow cytometry. […] Tumor development was monitored every day starting from day 7 after implantation (n=7, 7, 9, and 8 mice, respectively). […] Significance was determined in FIG. 7H and FIG. 7I by Student t test.*, P≤0.05; **, P≤0.01.

[7] = tested on: B16F10 cells; experiment: PD-L1 expression in tumor cells after IL-10 stimulation; format: cell-based, mouse; settings: 500 U/mL IL-10 for 5 days; FIG. 7E
Method: as §3

[8] = tested on: Human TILs from lung cancer patients; experiment: T cell exhaustion markers on CD8+ TILs after IL-10 culture, flow cytometry; format: cell-based; settings: IL-2 plus IL-10 versus IL-2, 21 days culture; FIG. 10
Method: T cells were activated by anti-CD3/CD28 antibodies for 24 hrs. The surface expression of PD-1, LAG-3 and TIM-3 was analyzed by flow cytometry. FACS profiles are representative of three patients.

[9] = tested on: CD8+ TILs from human lung tumors; experiment: mRNA expression profiling (microarray) of expanded CD8+ TILs; format: cell-based; settings: IL-10/IL-2-cultured versus IL-2-cultured CD8+ TILs
Method: Microarray Data Analysis: TILs from human lung tumors were in vitro—expanded for 20 days with 6,000 U/mL rIL2 and/or 100 U/mL rIL10. The expanded TILs were activated by incubation in 3 μg/mL anti-CD3/CD28 antibodies for 6 hours. The CD8+ TILs were enriched by negative selection using a kit (Stemcell Technologies). RNA was extracted using TRIzol reagent (Life Technologies) according to the instructions. Microarray analyses were performed using human U133A 2.0 arrays by the Duke University microarray facility. Raw intensities from the CEL files were analyzed using PartekGenomics Suite (Partek Incorporated) with standard background correction to generate an RMA (robust multiarray average intensity) on a log 2 scale for each probe set. Probe sets were filtered for “present” detection in two or more arrays, and the interquartile intensity range was >0.5. The filtered RMA intensities were then analyzed for differential expression using the advanced ANOVA, and differentially expressed genes were generated with/without FDR-adjusted P values using the Benjamini-Hochberg method.

For NC(N)=NCCC[C@H](NC(=O)COCC(c1ccccc1)c1ccccc1)C(=O)O [SB 290157], the “IL-10 expression in activated CD8+ T cells” value [1] was “slightly increased IL-10 expression”.

For “Pegylated IL-10: Pegylated IL-10 given to cancer patients”, the adverse effect profile [2] is given as “manageable adverse effect profile”.

In the case of “hydrocinnamate-(L-ornithine-proline-D-cyclohexylalanine-tryptophan-arginine) [PMX205]”, the “IL-10 expression in activated CD8+ T cells” value [1] is reported as “slightly increased IL-10 expression”.

B1: IL-10: a cytokine with multiple, pleotropic effects in immunoregulation and inflammation (protein, UniProt P22301 19-178, looked up)
Interleukin-10: SPGQGTQSENSCTHFPGNLPNMLRDLRDAFSRVKTFFQMKDQLDNLLLKESLLEDFKGYLGCQALSEMIQFYLEEVMPQAENQDPDIKAHVNSLGENLKTLRLRLRRCHRFLPCENKSKAVEQVKNAFNKLQEKGIYKAMSEFDIFINYIEAYMTMKIRN
In the case of B1, the “effector status (IFNγ and TNFα) of human CD4+ T cells” value [3] is reported as “did not obviously alter the effector status”, the “effector status (IFNγ and TNFα) of mouse CD4+ T cells” value [4] is reported as “did not obviously alter the effector status” and the “proliferative capacity of TILs” value ([5]; IL-10 added with IL-2: 6,000 U/mL rIL-2 plus 100 U/mL rIL-10, TILs from patients with lung cancer) is reported as “robustly enhanced the proliferative capacity of TILs”. For the same molecule, the “proliferative capacity of TILs (entry into the cell cycle)” value ([5]; IL-10 alone, 100 U/mL rIL-10) was “did not drive TILs into the cell cycle”, the “PD-1 expression on activated CD8+ T cells” value [6] was “did not modulate PD-1 expression” and the “PD-L1 expression on tumor cells” value [7] was “not changed”. For the same molecule, the “expression of T-cell exhaustion markers (PD-1, LAG3, TIM3)” value [8] was “not altered”, the “expression of genes of signaling pathways (TCR signaling, Notch signaling, cell cycle, killing activity)” value ([9]; 20 days, FIG. 5F-I) was “upregulated genes related to several signaling pathways” and the “expression of chemokine genes” value ([9]; FIG. 5J) was “variable depending on the specific chemokine”.
